Test results: US20200199241A1 (Chugai, published 2020)

Legend:
Test in all cases: SPR (Biacore);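 also: antibody variants captured on sensor chip, Fcγ receptor flowed over at 25 °C, bound receptor normalized to amount of captured antibody, expressed relative to reference antibody set as 100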
human FcγRIa = biological target: T1, human FcγRIa (human, UniProt P12314 16-292, limits assumed)
T1 construct: also called FcgRIa; FcγRI (CD64)

human FcγRIIa(R) = biological target: T2, human FcγRIIa(R) (human, UniProt P12318 36-217)
T2 construct: also called FcgRIIaR; FcγRIIa type R
T2 chain: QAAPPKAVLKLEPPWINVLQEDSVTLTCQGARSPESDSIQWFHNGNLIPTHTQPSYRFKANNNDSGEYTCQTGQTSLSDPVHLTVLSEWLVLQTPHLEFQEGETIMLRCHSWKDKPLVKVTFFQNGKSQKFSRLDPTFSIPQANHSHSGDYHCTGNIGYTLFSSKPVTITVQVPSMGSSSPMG

human FcγRIIa(H) = biological target: T3, human FcγRIIa(H) (human, UniProt P12318 36-217)
T3 construct: also called FcgRIIaH; FcγRIIa type H
T3 sequence: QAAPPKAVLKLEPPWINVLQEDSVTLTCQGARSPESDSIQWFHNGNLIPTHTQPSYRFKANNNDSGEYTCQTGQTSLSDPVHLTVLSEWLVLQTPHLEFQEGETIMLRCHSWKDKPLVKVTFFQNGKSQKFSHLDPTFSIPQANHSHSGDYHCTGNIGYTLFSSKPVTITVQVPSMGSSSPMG

human FcγRIIb = biological target: T4, human FcγRIIb (human, UniProt P31994 43-217, limits assumed)
T4 construct: also called FcgRIIb
T4 sequence: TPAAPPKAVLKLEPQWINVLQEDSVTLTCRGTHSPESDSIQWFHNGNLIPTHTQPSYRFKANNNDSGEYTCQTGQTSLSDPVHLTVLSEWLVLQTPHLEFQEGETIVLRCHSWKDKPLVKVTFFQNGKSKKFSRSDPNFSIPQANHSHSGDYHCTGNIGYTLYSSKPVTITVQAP

human FcγRIIIa(F) = biological target: T5, human FcγRIIIa(F) (human, UniProt P08637 17-208, limits assumed)
T5 construct: also called FcgRIIIaF; allotype F158
T5 sequence (P08637 other isoform, or with tags, fused parts or gaps limits assumed): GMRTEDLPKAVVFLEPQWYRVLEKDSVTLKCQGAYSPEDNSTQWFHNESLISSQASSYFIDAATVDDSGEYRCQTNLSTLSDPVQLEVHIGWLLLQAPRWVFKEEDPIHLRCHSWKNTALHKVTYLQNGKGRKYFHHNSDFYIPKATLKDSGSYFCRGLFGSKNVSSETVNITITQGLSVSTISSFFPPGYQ

T1 sequence (P12314 16-292 limits assumed): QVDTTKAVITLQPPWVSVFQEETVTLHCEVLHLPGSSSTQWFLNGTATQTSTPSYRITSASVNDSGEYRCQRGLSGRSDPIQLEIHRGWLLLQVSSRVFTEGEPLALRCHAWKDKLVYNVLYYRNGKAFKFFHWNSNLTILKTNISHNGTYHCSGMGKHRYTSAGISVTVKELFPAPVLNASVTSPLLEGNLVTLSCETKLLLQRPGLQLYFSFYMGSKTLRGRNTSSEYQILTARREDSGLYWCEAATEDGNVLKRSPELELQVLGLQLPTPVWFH

Binder | relative binding activity (human FcγRIa) | relative binding activity (human FcγRIIa(R)) | relative binding activity (human FcγRIIa(H)) | relative binding activity (human FcγRIIb) | relative binding activity (human FcγRIIIa(F))
GpH7-B3 variant L235T/GpL16-k0 (antibody, human IgG1, copies: 2 + 2) heavy: not shown light: DIVMTQSPLSLPVTPGEPASISCQASESLVHSNRNTYLHWYLQKPGQSPQLLIYKVSNRFSGVPDRFSGSGSGTDFTLKISRVEAEDVGVYYCSQNTHVPPTFGQGTKVEIE | 8 % of GpH7-B3/GpL16-k0 | 28 % of GpH7-B3/GpL16-k0 | 47 % of GpH7-B3/GpL16-k0 | 26 % of GpH7-B3/GpL16-k0 | 48 % of GpH7-B3/GpL16-k0
GpH7-B3 variant S239P/GpL16-k0 (antibody, human IgG1, copies: 2 + 2) heavy: not shown light: DIVMTQSPLSLPVTPGEPASISCQASESLVHSNRNTYLHWYLQKPGQSPQLLIYKVSNRFSGVPDRFSGSGSGTDFTLKISRVEAEDVGVYYCSQNTHVPPTFGQGTKVEIE | 89 % of GpH7-B3/GpL16-k0 | 49 % of GpH7-B3/GpL16-k0 | 4 % of GpH7-B3/GpL16-k0 | 61 % of GpH7-B3/GpL16-k0 | -1 % of GpH7-B3/GpL16-k0
GpH7-B3 variant P238S/GpL16-k0 (antibody, human IgG1, copies: 2 + 2) heavy: not shown light: DIVMTQSPLSLPVTPGEPASISCQASESLVHSNRNTYLHWYLQKPGQSPQLLIYKVSNRFSGVPDRFSGSGSGTDFTLKISRVEAEDVGVYYCSQNTHVPPTFGQGTKVEIE | 91 % of GpH7-B3/GpL16-k0 | 32 % of GpH7-B3/GpL16-k0 | 13 % of GpH7-B3/GpL16-k0 | 28 % of GpH7-B3/GpL16-k0 | 3 % of GpH7-B3/GpL16-k0
GpH7-B3 variant P238G/GpL16-k0 (antibody, human IgG1, copies: 2 + 2) heavy: not shown light: DIVMTQSPLSLPVTPGEPASISCQASESLVHSNRNTYLHWYLQKPGQSPQLLIYKVSNRFSGVPDRFSGSGSGTDFTLKISRVEAEDVGVYYCSQNTHVPPTFGQGTKVEIE | 65 % of GpH7-B3/GpL16-k0 | 4 % of GpH7-B3/GpL16-k0 | 1 % of GpH7-B3/GpL16-k0 | 27 % of GpH7-B3/GpL16-k0 | 0 % of GpH7-B3/GpL16-k0
GpH7-B3 variant P238T/GpL16-k0 (antibody, human IgG1, copies: 2 + 2) heavy: not shown light: DIVMTQSPLSLPVTPGEPASISCQASESLVHSNRNTYLHWYLQKPGQSPQLLIYKVSNRFSGVPDRFSGSGSGTDFTLKISRVEAEDVGVYYCSQNTHVPPTFGQGTKVEIE | 67 % of GpH7-B3/GpL16-k0 | 19 % of GpH7-B3/GpL16-k0 | 6 % of GpH7-B3/GpL16-k0 | 8 % of GpH7-B3/GpL16-k0 | 0 % of GpH7-B3/GpL16-k0
GpH7-B3 variant S239K/GpL16-k0 (antibody, human IgG1, copies: 2 + 2) heavy: not shown light: DIVMTQSPLSLPVTPGEPASISCQASESLVHSNRNTYLHWYLQKPGQSPQLLIYKVSNRFSGVPDRFSGSGSGTDFTLKISRVEAEDVGVYYCSQNTHVPPTFGQGTKVEIE | 6 % of GpH7-B3/GpL16-k0 | 4 % of GpH7-B3/GpL16-k0 | 4 % of GpH7-B3/GpL16-k0 | 1 % of GpH7-B3/GpL16-k0 | 0 % of GpH7-B3/GpL16-k0
GpH7-B3 variant S239F/GpL16-k0 (antibody, human IgG1, copies: 2 + 2) heavy: not shown light: DIVMTQSPLSLPVTPGEPASISCQASESLVHSNRNTYLHWYLQKPGQSPQLLIYKVSNRFSGVPDRFSGSGSGTDFTLKISRVEAEDVGVYYCSQNTHVPPTFGQGTKVEIE | 77 % of GpH7-B3/GpL16-k0 | 20 % of GpH7-B3/GpL16-k0 | 11 % of GpH7-B3/GpL16-k0 | 12 % of GpH7-B3/GpL16-k0 | 3 % of GpH7-B3/GpL16-k0
GpH7-B3 variant P238A/GpL16-k0 (antibody, human IgG1, copies: 2 + 2) heavy: not shown light: DIVMTQSPLSLPVTPGEPASISCQASESLVHSNRNTYLHWYLQKPGQSPQLLIYKVSNRFSGVPDRFSGSGSGTDFTLKISRVEAEDVGVYYCSQNTHVPPTFGQGTKVEIE | 95 % of GpH7-B3/GpL16-k0 | 38 % of GpH7-B3/GpL16-k0 | 15 % of GpH7-B3/GpL16-k0 | 26 % of GpH7-B3/GpL16-k0 | 5 % of GpH7-B3/GpL16-k0
GpH7-B3 variant P238I/GpL16-k0 (antibody, human IgG1, copies: 2 + 2) heavy: not shown light: DIVMTQSPLSLPVTPGEPASISCQASESLVHSNRNTYLHWYLQKPGQSPQLLIYKVSNRFSGVPDRFSGSGSGTDFTLKISRVEAEDVGVYYCSQNTHVPPTFGQGTKVEIE | 99 % of GpH7-B3/GpL16-k0 | 43 % of GpH7-B3/GpL16-k0 | 19 % of GpH7-B3/GpL16-k0 | 31 % of GpH7-B3/GpL16-k0 | 3 % of GpH7-B3/GpL16-k0
GpH7-B3 variant P238N/GpL16-k0 (antibody, human IgG1, copies: 2 + 2) heavy: not shown light: DIVMTQSPLSLPVTPGEPASISCQASESLVHSNRNTYLHWYLQKPGQSPQLLIYKVSNRFSGVPDRFSGSGSGTDFTLKISRVEAEDVGVYYCSQNTHVPPTFGQGTKVEIE | 64 % of GpH7-B3/GpL16-k0 | 5 % of GpH7-B3/GpL16-k0 | 1 % of GpH7-B3/GpL16-k0 | 27 % of GpH7-B3/GpL16-k0 | -1 % of GpH7-B3/GpL16-k0
GpH7-B3 variant P238R/GpL16-k0 (antibody, human IgG1, copies: 2 + 2) heavy: not shown light: DIVMTQSPLSLPVTPGEPASISCQASESLVHSNRNTYLHWYLQKPGQSPQLLIYKVSNRFSGVPDRFSGSGSGTDFTLKISRVEAEDVGVYYCSQNTHVPPTFGQGTKVEIE | 1 % of GpH7-B3/GpL16-k0 | -1 % of GpH7-B3/GpL16-k0 | -1 % of GpH7-B3/GpL16-k0 | -2 % of GpH7-B3/GpL16-k0 | -1 % of GpH7-B3/GpL16-k0
GpH7-B3 variant P238Q/GpL16-k0 (antibody, human IgG1, copies: 2 + 2) heavy: not shown light: DIVMTQSPLSLPVTPGEPASISCQASESLVHSNRNTYLHWYLQKPGQSPQLLIYKVSNRFSGVPDRFSGSGSGTDFTLKISRVEAEDVGVYYCSQNTHVPPTFGQGTKVEIE | 84 % of GpH7-B3/GpL16-k0 | 19 % of GpH7-B3/GpL16-k0 | 4 % of GpH7-B3/GpL16-k0 | 43 % of GpH7-B3/GpL16-k0 | -1 % of GpH7-B3/GpL16-k0
GpH7-B3 variant S239H/GpL16-k0 (antibody, human IgG1, copies: 2 + 2) heavy: not shown light: DIVMTQSPLSLPVTPGEPASISCQASESLVHSNRNTYLHWYLQKPGQSPQLLIYKVSNRFSGVPDRFSGSGSGTDFTLKISRVEAEDVGVYYCSQNTHVPPTFGQGTKVEIE | 64 % of GpH7-B3/GpL16-k0 | 38 % of GpH7-B3/GpL16-k0 | 19 % of GpH7-B3/GpL16-k0 | 24 % of GpH7-B3/GpL16-k0 | 6 % of GpH7-B3/GpL16-k0
GpH7-B3 variant L235V/GpL16-k0 (antibody, human IgG1, copies: 2 + 2) heavy: not shown light: DIVMTQSPLSLPVTPGEPASISCQASESLVHSNRNTYLHWYLQKPGQSPQLLIYKVSNRFSGVPDRFSGSGSGTDFTLKISRVEAEDVGVYYCSQNTHVPPTFGQGTKVEIE | 69 % of GpH7-B3/GpL16-k0 | 50 % of GpH7-B3/GpL16-k0 | 68 % of GpH7-B3/GpL16-k0 | 47 % of GpH7-B3/GpL16-k0 | 77 % of GpH7-B3/GpL16-k0
GpH7-B3 variant P238K/GpL16-k0 (antibody, human IgG1, copies: 2 + 2) heavy: not shown light: DIVMTQSPLSLPVTPGEPASISCQASESLVHSNRNTYLHWYLQKPGQSPQLLIYKVSNRFSGVPDRFSGSGSGTDFTLKISRVEAEDVGVYYCSQNTHVPPTFGQGTKVEIE | 8 % of GpH7-B3/GpL16-k0 | -2 % of GpH7-B3/GpL16-k0 | -1 % of GpH7-B3/GpL16-k0 | -2 % of GpH7-B3/GpL16-k0 | -1 % of GpH7-B3/GpL16-k0
GpH7-B3 variant P238H/GpL16-k0 (antibody, human IgG1, copies: 2 + 2) heavy: not shown light: DIVMTQSPLSLPVTPGEPASISCQASESLVHSNRNTYLHWYLQKPGQSPQLLIYKVSNRFSGVPDRFSGSGSGTDFTLKISRVEAEDVGVYYCSQNTHVPPTFGQGTKVEIE | 80 % of GpH7-B3/GpL16-k0 | 25 % of GpH7-B3/GpL16-k0 | 3 % of GpH7-B3/GpL16-k0 | 19 % of GpH7-B3/GpL16-k0 | -1 % of GpH7-B3/GpL16-k0
GpH7-B3 variant S239Q/GpL16-k0 (antibody, human IgG1, copies: 2 + 2) heavy: not shown light: DIVMTQSPLSLPVTPGEPASISCQASESLVHSNRNTYLHWYLQKPGQSPQLLIYKVSNRFSGVPDRFSGSGSGTDFTLKISRVEAEDVGVYYCSQNTHVPPTFGQGTKVEIE | 96 % of GpH7-B3/GpL16-k0 | 57 % of GpH7-B3/GpL16-k0 | 58 % of GpH7-B3/GpL16-k0 | 68 % of GpH7-B3/GpL16-k0 | 29 % of GpH7-B3/GpL16-k0
GpH7-B3 variant P238W/GpL16-k0 (antibody, human IgG1, copies: 2 + 2) heavy: not shown light: DIVMTQSPLSLPVTPGEPASISCQASESLVHSNRNTYLHWYLQKPGQSPQLLIYKVSNRFSGVPDRFSGSGSGTDFTLKISRVEAEDVGVYYCSQNTHVPPTFGQGTKVEIE | 99 % of GpH7-B3/GpL16-k0 | 25 % of GpH7-B3/GpL16-k0 | 2 % of GpH7-B3/GpL16-k0 | 13 % of GpH7-B3/GpL16-k0 | -1 % of GpH7-B3/GpL16-k0
